Measured values taken from patent US20220064329A1 (Novo Nordisk, published 2022).

Experiments:
FVII(a) variant E116A = target: T1, FVII(a) variant E116A (human, UniProt P08709 61-466); test: SPR, ratio of KD to KD of WT
T1 construct: hFVII alanine variant in cell culture supernatant
T1 sequence: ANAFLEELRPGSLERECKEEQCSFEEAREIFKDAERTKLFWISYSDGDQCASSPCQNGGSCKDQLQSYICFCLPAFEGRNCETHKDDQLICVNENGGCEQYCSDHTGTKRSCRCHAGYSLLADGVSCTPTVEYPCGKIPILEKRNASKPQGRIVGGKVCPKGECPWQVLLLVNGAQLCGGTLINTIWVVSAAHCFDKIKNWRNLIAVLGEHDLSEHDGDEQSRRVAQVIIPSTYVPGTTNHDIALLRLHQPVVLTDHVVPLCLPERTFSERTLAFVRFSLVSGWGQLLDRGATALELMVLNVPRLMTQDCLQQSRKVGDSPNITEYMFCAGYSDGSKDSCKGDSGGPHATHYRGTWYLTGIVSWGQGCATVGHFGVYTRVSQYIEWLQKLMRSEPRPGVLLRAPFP
Method: (§1) The running buffer was prepared by diluting 10-fold the 10×HBS-P buffer (supplied by GE Healthcare) and supplemented with 1 mg/ml BSA and 5 mM CaCl2 to give 10 mM HEPES, 150 mM NaCl, 0.05% v/v Polysorbate 20, pH 7.4, 5 mM CaCl2, 1 mg/ml bovine serum albumin (BSA). […] Regeneration of the chip was achieved using 10 mM HEPES, 150 mM NaCl, 20 mM EDTA, 0.05 v/v Polysorbate 20, pH 7.4. Binding data were analysed according to a 1:1 Kinetic model and steady state analysis using BiaEvaluation 4.1 supplied by the manufacturer (Biacore AB, Uppsala, Sweden). Wherever possible, ka, kd and KD values from 1:1 kinetic fitting model are reported. […] An amino acid residue is considered a hot-spot residue if substitution of that amino acid residue with alanine results in an affinity reduction of ten (10) fold or more relative to the wild type.

FVII(a) variant R392A = target: T2, FVII(a) variant R392A (human, UniProt P08709 61-466); test: SPR, ratio of KD to KD of WT
T2 construct: hFVII alanine variant in cell culture supernatant
T2 sequence: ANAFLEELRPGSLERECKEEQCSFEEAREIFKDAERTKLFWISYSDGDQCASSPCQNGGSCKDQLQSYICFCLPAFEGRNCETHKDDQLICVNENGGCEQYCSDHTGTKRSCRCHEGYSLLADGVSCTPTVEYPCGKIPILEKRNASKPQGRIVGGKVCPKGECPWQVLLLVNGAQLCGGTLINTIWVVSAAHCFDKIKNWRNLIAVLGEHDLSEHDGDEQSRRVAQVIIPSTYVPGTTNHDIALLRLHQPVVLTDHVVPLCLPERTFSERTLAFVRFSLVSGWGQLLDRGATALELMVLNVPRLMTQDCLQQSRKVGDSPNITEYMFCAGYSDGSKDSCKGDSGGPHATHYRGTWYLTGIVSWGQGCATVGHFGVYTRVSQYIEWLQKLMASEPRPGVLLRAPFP
Method: as §1

FVII(a) WT [1] = target: T3, FVII(a) WT (human, UniProt P08709 61-466); test: SPR, ratio of KD to KD of WT
T3 construct: also called wild type human FVII(a)
T3 sequence: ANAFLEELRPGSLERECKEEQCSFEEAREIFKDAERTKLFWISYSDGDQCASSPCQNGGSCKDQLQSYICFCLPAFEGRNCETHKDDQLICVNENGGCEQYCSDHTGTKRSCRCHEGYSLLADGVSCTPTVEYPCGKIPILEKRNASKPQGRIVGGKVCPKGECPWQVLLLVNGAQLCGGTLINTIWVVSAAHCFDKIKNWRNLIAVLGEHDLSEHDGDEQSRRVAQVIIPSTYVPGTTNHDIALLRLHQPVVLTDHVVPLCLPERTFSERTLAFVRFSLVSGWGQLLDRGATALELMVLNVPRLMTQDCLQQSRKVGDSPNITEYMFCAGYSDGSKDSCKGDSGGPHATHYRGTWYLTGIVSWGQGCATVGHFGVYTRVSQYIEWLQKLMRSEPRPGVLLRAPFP
Method: as §1

FVII(a) variant H115A = target: T4, FVII(a) variant H115A (human, UniProt P08709 61-466); test: SPR, ratio of KD to KD of WT
T4 construct: hFVII alanine variant in cell culture supernatant
T4 sequence: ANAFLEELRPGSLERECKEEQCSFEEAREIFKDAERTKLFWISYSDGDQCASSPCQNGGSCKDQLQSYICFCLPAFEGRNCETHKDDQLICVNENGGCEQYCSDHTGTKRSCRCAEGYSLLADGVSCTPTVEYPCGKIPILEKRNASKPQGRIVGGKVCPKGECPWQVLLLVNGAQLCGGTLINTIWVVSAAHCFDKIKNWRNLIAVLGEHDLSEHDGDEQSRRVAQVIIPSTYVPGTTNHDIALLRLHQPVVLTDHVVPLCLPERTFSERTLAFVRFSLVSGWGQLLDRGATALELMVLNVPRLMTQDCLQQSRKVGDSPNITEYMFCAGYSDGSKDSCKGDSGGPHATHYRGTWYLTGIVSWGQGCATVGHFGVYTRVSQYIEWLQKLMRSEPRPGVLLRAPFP
Method: as §1

FVII(a) variant G117A = target: T5, FVII(a) variant G117A (human, UniProt P08709 61-466); test: SPR, ratio of KD to KD of WT
T5 construct: hFVII alanine variant in cell culture supernatant
T5 sequence: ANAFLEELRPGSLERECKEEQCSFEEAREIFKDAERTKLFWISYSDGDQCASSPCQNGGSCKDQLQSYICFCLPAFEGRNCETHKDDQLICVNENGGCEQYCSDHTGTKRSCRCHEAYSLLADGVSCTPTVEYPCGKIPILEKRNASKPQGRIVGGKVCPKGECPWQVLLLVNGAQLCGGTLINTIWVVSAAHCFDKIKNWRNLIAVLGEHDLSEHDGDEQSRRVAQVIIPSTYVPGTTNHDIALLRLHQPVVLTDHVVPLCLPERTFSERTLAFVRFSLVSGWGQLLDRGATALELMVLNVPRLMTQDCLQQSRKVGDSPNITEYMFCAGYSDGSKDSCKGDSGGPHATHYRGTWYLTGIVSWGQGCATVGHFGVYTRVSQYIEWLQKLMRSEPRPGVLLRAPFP
Method: as §1

FVII(a) WT [2] = target: T3, FVII(a) WT; test: SPR, Biacore T200, 25 C; FVII(a) captured on anti-Gla Ab 4F6, mAb0842(OA) injected
Method: as §1

Fold diff (Variant/WT) (FVII(a) variant E116A): 1.6 fold | Fold diff (Variant/WT) (FVII(a) variant R392A): 142 fold | Fold diff (Variant/WT) (FVII(a) WT [1]): 1 fold | Fold diff (Variant/WT) (FVII(a) variant H115A): 26.8 fold | Fold diff (Variant/WT) (FVII(a) variant G117A): 1 fold | Kd (FVII(a) WT [2]): 310 pM
B1: mAb0842(OA) (antibody, human IgG4 S228P, kappa)
heavy: QVQLQESGPGLVKPSQTLSLTCTVSGYSISSDSAWSWIRQPPGKGLEWIGYIQYSGSTNYNPSLKSRVTISRDTSKNQFSLKLSSVTAADTAVYYCARSVNYYGNSFAVGYWGQGTLVTVSSASTKGPSVFPLAPCSRSTSESTAALGCLVKDYFPEPVTVSWNSGALTSGVHTFPAVLQSSGLYSLSSVVTVPSSSLGTKTYTCNVDHKPSNTKVDKRVESKYGPPCPPCPAPEFLGGPSVFLFPPKPKDTLMISRTPEVTCVVVDVSQEDPEVQFNWYVDGVEVHNAKTKPREEQFNSTYRVVSVLTVLHQDWLNGKEYKCKVSNKGLPSSIEKTISKAKGQPREPQVYTLPPSQEEMTKNQVSLSCAVKGFYPSDIAVEWESNGQPENNYKTTPPVLDSDGSFFLVSRLTVDKSRWQEGNVFSCSVMHEALHNHYTQKSLSLSLGK
light: EIVLTQSPATLSLSPGERATLSCRASQGISDYLHWYQQKPGEAPRLLIKYTSQPATGIPARFSGSGSGTDFTLTISSLEPEDFAVYYCQNGHSFPLTFGQGTKLEIKRTVAAPSVFIFPPSDEQLKSGTASVVCLLNNFYPREAKVQWKVDNALQSGNSQESVTEQDSKDSTYSLSSTLTLSKADYEKHKVYACEVTHQGLSSPVTKSFNRGEC
chain: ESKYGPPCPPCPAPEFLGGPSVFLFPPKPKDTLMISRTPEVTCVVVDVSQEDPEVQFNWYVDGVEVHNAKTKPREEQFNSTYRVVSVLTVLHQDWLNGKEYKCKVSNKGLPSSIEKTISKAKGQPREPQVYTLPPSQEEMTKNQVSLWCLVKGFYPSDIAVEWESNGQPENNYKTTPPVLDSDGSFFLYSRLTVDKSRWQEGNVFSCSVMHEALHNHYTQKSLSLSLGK
notes: also called monovalent humanized 11F2 antibody; one-armed anti-FVII(a) antibody
